Experimental data as given in US20180094062A1 (Hoffmann-La Roche, published 2018).

How the values were obtained:
[1] = molecular target: T1, recombinant Thermus thermophilus SlyD FKBP-Her3 (TtSlyD-FKBP-Her3); assay: SPR, antibody captured
T1 construct: expressed in E. coli, the N-terminal methionine can be present or not; also called thermo SlyD-Her3; T.T.SlyD-Her3
T1 chain: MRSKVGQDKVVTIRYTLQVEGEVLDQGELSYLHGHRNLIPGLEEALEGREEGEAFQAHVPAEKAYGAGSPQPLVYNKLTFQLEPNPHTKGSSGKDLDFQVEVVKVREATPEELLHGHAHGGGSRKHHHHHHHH
Method: In all assay the test antibodies were captured. The system was under the control of the software version V1.1. The instrument buffer was HBS-EP (10 mM HEPES (pH 7.4), 150 mM NaCl, 1 mM EDTA, 0.05% (w/v) P20). The system operated at 25° C. 30 μg/ml Rabbit polyclonal antibody (RAM IgG, (Rabbit anti Mouse IgG with Fc gamma specificity) GE Healthcare) in 10 mM sodium acetate buffer (pH 4.5) was immobilized using EDC/NHS chemistry according to the manufacturer's instructions on the spots 1, 2, 4 and 5 in the flow cells 1, 2, 3 and 4. The sensor was saturated using 1M ethanolamine. In each flow cell, referenced signals were calculated using spots 1-2 and spots 5-4, spot 3 served as a blanc control. […] The antibody capture level (CL) in response units was monitored. […] Thereafter, the antibody-antigen complex dissociation signal was recorded for 5 min. […] The recorded signal shortly before the end of the injection of the antigen was denoted as binding late (BL) in response units. The recorded signal shortly before the end of the recording of the dissociation is denoted as stability late (SL) in response units. The dissociation rate constants were determined calculated The antibody-antigen complex stability in minutes was calculated with the following formula: […]. The Molar Ratio was calculated with the formula: MW (antibody)/MW (antigen) *BL (antigen)/CL (antibody). […]

[2] = molecular target: T2, human Heregulin fragment (HRG) (human); assay: SPR Biacore T100, antibody captured, 25 C
T2 construct: a 44 kDa homodimeric protein, expressed in FreeStyle 293-F cells; also called Heregulin beta (HRG)
T2 chain: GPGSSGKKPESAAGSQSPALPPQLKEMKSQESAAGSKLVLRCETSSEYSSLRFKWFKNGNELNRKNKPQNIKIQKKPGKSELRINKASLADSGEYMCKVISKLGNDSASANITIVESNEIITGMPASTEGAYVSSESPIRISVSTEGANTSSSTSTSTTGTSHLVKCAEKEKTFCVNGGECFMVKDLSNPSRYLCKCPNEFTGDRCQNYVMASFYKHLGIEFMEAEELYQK

[3] = molecular target: T3, HER4 ECD-HRG complex (Heregulin-complexed Her-4 ECD) (human, UniProt Q15303 26-651); assay: SPR Biacore T100, antibody captured, 25 C
T3 construct: Her-4 ECD incubated with a 5-fold molar excess of Heregulin
T3 sequence 1: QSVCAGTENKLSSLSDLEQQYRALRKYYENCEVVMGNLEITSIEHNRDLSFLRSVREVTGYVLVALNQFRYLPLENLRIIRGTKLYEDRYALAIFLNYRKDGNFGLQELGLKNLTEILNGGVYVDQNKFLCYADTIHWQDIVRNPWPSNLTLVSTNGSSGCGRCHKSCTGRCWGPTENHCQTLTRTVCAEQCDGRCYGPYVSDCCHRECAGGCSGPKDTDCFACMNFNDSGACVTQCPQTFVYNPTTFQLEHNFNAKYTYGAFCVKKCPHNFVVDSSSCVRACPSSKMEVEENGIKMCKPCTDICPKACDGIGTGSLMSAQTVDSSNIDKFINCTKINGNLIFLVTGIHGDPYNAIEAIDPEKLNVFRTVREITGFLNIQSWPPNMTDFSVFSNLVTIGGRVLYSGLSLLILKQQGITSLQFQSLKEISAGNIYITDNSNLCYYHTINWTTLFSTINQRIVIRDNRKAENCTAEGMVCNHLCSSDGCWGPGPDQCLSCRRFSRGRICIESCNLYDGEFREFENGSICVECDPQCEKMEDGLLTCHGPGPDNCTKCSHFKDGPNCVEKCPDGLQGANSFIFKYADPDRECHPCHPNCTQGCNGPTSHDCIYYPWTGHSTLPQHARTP
T3 sequence 2: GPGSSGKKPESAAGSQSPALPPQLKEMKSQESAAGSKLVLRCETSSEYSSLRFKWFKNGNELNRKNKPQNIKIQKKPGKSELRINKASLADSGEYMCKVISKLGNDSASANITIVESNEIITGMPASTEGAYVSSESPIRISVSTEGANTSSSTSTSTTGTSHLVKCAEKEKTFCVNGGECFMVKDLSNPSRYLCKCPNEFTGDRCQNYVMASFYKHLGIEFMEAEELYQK

[4] = molecular target: T1, recombinant Thermus thermophilus SlyD …; assay: SPR Biacore T100, antibody captured, 25 C
TtSlyD-Wildtype = molecular target: T4, TtSlyD-Wildtype; assay: SPR Biacore T100, antibody captured, 25 C
T4 construct: scaffold without insert; N-terminal methionine can be present or not; also called T.T.SlyD-wt; wild type Thermus thermophilus SlyD protein
T4 chain: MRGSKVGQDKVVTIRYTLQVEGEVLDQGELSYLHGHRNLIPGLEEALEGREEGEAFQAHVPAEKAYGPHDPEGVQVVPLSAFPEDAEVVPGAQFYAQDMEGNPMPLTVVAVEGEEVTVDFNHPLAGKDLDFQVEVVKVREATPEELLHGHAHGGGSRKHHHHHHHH

[5] = molecular target: T5, HER3 ECD-HRG complex (Heregulin-activated Her-3 ECD) (human, UniProt P21860 20-643); assay: SPR Biacore 3000, antibody captured, Biacore two-state model, ka1, 25 C; ka1, first step of the two-state fit
T5 construct: receptor-ligand complex made by preincubating HER3 ECD with a five-fold molar excess of Heregulin; also called Heregulin/Her-3 ECD; Heregulin-complexed Her-3 ECD
Method: (§1) A CM5 series sensor was mounted into the system and was normalized in HBS-ET buffer (10 mM HEPES pH 7.4, 150 mM NaCl, 3 mM EDTA, 0.005% w/v Tween 20) according to the manufacturer's instructions. The sample buffer was the system buffer supplemented with 1 mg/ml CMD (Carboxymethyldextran). The system operated at 25° C. 10000 RU RAM-Fey (relative units of Fey-fragment Rabbit Anti-Mouse IgG/Jackson Laboratories) were immobilized according to the manufacturer's instructions using EDC/NHS chemistry on all flow cells. The sensor was deactivated using 1M ethanolamine.

[6] = molecular target: T5, HER3 ECD-HRG complex …; assay: SPR Biacore 3000, antibody captured, Biacore two-state model, apparent KD from ka1 and kd2, 25 C; apparent KD of the two-state model, kd2 / ka1
Method: as §1

ratio Ka (Thermus thermophilus SlyD FKBP-Her3)/Ka (HER3-ECD) [1]: ≥ 1.5 ratio
ratio MR (Thermus thermophilus SlyD FKBP-Her3)/MR (HER3-ECD) [1]: ≥ 2 ratio
binding result [2]: no binding (tested: 90 nM)
binding result [3]: no binding (tested: 90 nM)
MR (Molar Ratio) [4]: 1.4
binding result (TtSlyD-Wildtype): no binding (tested: 90 nM)
kon [5]: 45800 M⁻¹ s⁻¹
Kd [6]: 18 nM
B1: anti-HER3 antibody M-08-11 (antibody, V domains shown)
VH: QAYLQQSGAELMRPGASVRMSCQASGYTFTSYTIHWLKQTPRQGLEWIGAIYPRNGDFSYNQKFKDKASLTVDTSSSTAYMHLSSLTSEDSAVYFCARTINYGDWFAYWGQGTLVTVSA
VL: DIQMIQSPASLFVSEGETVIITCRASENIYSNLAWYHQKKGKSPQVLVYAAIKLADGVPLRFSGSGSGTQFSLKINSLQSEDFGSYYCQHFWGPPYTFGSGTNLEIK
notes: mouse monoclonal antibody from hybridoma, tested as hybridoma supernatant or as antibody; also called M-011
